This note sets out measurements from PMC6123398.

Assay [1] has as its target human FcγRIIIa-Val158, soluble ectodomain (human). Put plainly: SPR; FcγRIIIa ectodomains immobilised on Series S CM5 chips by amine coupling (Phe158 560 RU, Val158 260 RU); Biacore T200; antibody injected (Rituxan 21,870-30 nM, recombinant mAb 810-3.333 nM, threefold dilutions); blank surface and buffer subtracted; 1:1 Langmuir binding model.
Assay [2] addresses human FcγRIIIa-Phe158, soluble ectodomain (human) (UniProt P08637). The description is as above.
UniProt P08637, sequence (P08637 17-208): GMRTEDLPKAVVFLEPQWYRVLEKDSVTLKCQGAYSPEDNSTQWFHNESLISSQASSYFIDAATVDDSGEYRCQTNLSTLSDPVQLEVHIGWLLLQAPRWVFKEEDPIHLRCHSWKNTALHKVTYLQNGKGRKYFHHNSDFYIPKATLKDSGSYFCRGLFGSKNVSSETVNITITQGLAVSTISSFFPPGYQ

A word on the Kd: it is the free concentration of one partner at which half of the binding sites on the other are occupied at equilibrium, for simple one-to-one binding. For orientation: koff means the first-order rate constant of dissociation. One may read the kon as a measure of how fast the partners come together.

Regarding Rituxan (antibody), in assay [1], the Kd was determined as 0.94 µM, the koff was determined as 0.043 s⁻¹ and the kon stood at 46000 M⁻¹ s⁻¹. Further, in assay [2], the equilibrium dissociation constant (Kd) is 6.8 µM, the koff worked out at 0.17 s⁻¹ and the kon was determined as 25000 M⁻¹ s⁻¹.
